Biological target: HRV-3C protease biosensor: blocked hybrid scFv of H6-MG (VH) and HL1-TO1 (VL) with the HRV-3C recognition sequence […]in the peptide linker
Experiment: cell-based or functional assay

With Human Rhinovirus 3C protease (enzyme) as the substance, how does the kinetic assay of MG fluorescence activation, time to complete activation (1 unit protease, 25° C.) read?
The kinetic assay of MG fluorescence activation, time to complete activation (1 unit protease, 25° C.) was 30 min.
